Test results published in article PMC4096120 (Science signaling, 2013).

Molecular target: eGFP-DGKζ (fusion of enhanced green fluorescent protein and diacylglycerol kinase ζ) (UniProt Q80UP3 1-929)
Experiment: co-IP

eGFP-DGKζ (fusion of enhanced green fluorescent protein and diacylglycerol kinase ζ), sequence (Q80UP3 whole entry, the tested form may be a part): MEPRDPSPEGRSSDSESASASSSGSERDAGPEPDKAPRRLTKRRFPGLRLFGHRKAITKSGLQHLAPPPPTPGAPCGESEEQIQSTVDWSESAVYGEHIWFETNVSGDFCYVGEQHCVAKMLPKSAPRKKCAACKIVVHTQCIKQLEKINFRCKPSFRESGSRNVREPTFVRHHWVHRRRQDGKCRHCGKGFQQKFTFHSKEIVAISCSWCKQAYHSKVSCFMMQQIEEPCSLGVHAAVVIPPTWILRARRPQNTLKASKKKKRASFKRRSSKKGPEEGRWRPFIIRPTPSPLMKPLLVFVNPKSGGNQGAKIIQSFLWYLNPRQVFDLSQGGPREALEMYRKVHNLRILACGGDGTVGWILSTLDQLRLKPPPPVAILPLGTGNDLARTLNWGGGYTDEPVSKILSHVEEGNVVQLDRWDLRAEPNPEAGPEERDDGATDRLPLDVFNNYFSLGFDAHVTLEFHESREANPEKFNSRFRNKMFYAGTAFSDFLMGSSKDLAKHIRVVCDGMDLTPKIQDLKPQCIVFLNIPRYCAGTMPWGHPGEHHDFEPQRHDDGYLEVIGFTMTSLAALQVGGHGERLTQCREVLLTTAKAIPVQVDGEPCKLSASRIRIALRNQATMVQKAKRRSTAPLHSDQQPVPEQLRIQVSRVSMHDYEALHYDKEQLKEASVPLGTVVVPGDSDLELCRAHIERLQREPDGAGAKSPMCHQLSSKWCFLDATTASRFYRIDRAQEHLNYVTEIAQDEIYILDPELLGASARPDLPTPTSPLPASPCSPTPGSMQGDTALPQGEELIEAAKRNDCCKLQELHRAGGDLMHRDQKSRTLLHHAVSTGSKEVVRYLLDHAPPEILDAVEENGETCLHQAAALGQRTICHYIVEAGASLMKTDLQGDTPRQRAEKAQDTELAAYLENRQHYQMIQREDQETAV

B1: RasGRP1 (Ras guanyl nucleotide-releasing protein 1), from pEF6-huRasGRP1-myc/His wild-type plasmid (natural protein, human, UniProt O95267 1-797, looked up)
chain: MGTLGKAREAPRKPSHGCRAASKARLEAKPANSPFPSHPSLAHITQFRMMVSLGHLAKGASLDDLIDSCIQSFDADGNLCRSNQLLQVMLTMHRIVISSAELLQKVITLYKDALAKNSPGLCLKICYFVRYWITEFWVMFKMDASLTDTMEEFQELVKAKGEELHCRLIDTTQINARDWSRKLTQRIKSNTSKKRKVSLLFDHLEPEELSEHLTYLEFKSFRRISFSDYQNYLVNSCVKENPTMERSIALCNGISQWVQLMVLSRPTPQLRAEVFIKFIQVAQKLHQLQNFNTLMAVIGGLCHSSISRLKETSSHVPHEINKVLGEMTELLSSSRNYDNYRRAYGECTDFKIPILGVHLKDLISLYEAMPDYLEDGKVNVHKLLALYNHISELVQLQEVAPPLEANKDLVHLLTLSLDLYYTEDEIYELSYAREPRNHRAPPLTPSKPPVVVDWASGVSPKPDPKTISKHVQRMVDSVFKNYDHDQDGYISQEEFEKIAASFPFSFCVMDKDREGLISRDEITAYFMRASSIYSKLGLGFPHNFQETTYLKPTFCDNCAGFLWGVIKQGYRCKDCGMNCHKQCKDLVVFECKKRAKNPVAPTENNTSVGPVSNLCSLGAKDLLHAPEEGPFTFPNGEAVEHGEESKDRTIMLMGVSSQKISLRLKRAVAHKATQTESQPWIGSEGPSGPFVLSSPRKTAQDTLYVLPSPTSPCPSPVLVRKRAFVKWENKDSLIKSKEELRHLRLPTYQELEQEINTLKADNDALKIQLKYAQKKIESLQLEKSNHVLAQMEQGDCS
- fold binding relative to DGKα: ≤ 3 fold
